Results on five molecules are retold here after article PMC3858845 (Molecular bioSystems, 2014).

In one data set the target is bfIYD (Branchiostoma floridae, UniProt C3Y0Q6). The data set is described as follows: FMN occupancy of purified enzyme from A450 and A280. The following applies: FMN bound as isolated. The class given is binding.
For another data set, the target named is dpIYD (Daphnia pulex, UniProt E9FR69). The description is as above. The class given is binding. The following applies: FMN bound as isolated.
The next data set addresses T1, drIYD (Danio rerio, UniProt E7FDV5).
T1 sequence (E7FDV5 24-295 limits assumed): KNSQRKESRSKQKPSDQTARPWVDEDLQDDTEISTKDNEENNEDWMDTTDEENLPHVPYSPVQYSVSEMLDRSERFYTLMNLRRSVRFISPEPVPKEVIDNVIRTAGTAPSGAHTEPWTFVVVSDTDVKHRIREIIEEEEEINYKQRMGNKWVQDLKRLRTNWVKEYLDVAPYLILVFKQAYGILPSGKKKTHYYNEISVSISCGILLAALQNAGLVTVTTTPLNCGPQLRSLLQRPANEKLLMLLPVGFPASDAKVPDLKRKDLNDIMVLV
The description is as above. The data set is classed as binding. The conditions noted are these: FMN bound as isolated.

For a further data set, the target named is amIYD (Apis mellifera, UniProt A0A7M7RAX7). Described as above. The conditions noted are these: FMN bound as isolated. The data set is classed as binding.
A further data set concerns the target nvIYD (Nematostella vectensis, UniProt A7S5D9). Described as above. The data set is classed as binding. The conditions noted are these: FMN bound as isolated.
In the next data set the target is hmIYD (Hydra vulgaris, UniProt T2MBC4). The description is as above. The class given is binding. The conditions noted are these: FMN bound as isolated; partly purified enzyme.
The target in another data set is hhIYD (Haliscomenobacter hydrossis, UniProt F4KU78). The data set is described as above. The class given is binding. The conditions noted are these: FMN bound as isolated.
Substrate in data set [1]: N[C@@H](Cc1cc(I)c(O)c(I)c1)C(=O)O
Nature of the data set: purified protein. The class given is biochemical, Haliscomenobacter hydrossis. The conditions noted are these: labelled compound; excess FMN present in assay.

Substrate in data set [2]: N[C@@H](Cc1cc(I)c(O)c(I)c1)C(=O)O
Nature of the data set: purified protein. The class given is biochemical, Nematostella vectensis. The following applies: labelled compound; excess FMN present in assay.

Substrate in data set [3]: N[C@@H](Cc1cc(I)c(O)c(I)c1)C(=O)O
Nature of the data set: purified protein. The following applies: labelled compound; excess FMN present in assay. The data set is classed as biochemical, Daphnia pulex.

Substrate in data set [4]: N[C@@H](Cc1cc(I)c(O)c(I)c1)C(=O)O
The data set is described as follows: purified protein. The following applies: labelled compound; excess FMN present in assay. The data set is classed as biochemical, Danio rerio.

Chain of hmIYD (T2MBC4 43-272): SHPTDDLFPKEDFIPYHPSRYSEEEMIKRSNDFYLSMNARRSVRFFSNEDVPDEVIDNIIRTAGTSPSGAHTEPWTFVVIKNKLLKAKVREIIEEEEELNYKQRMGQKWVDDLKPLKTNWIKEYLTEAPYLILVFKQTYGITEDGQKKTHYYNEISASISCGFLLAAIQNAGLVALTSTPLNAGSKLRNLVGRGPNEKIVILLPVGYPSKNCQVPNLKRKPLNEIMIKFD

In the case of `Cc1cc2nc3c(=O)[nH]c(=O)nc-3n(C[C@H](O)[C@H](O)[C@H](O)COP(=O)(O)O)c2cc1C` [FMN], the FMN occupancy amounted to 95% at bfIYD; 95% at dpIYD; 95% on drIYD; 95% on amIYD; 55% on nvIYD; 59% on hmIYD. At hhIYD, this molecule displayed an FMN occupancy of 95%.

B1: hhIYD (Haliscomenobacter hydrossis DSM 1100) (protein)
chain: MKQKPAFIPYAGAQFEPEEMLSKSAEYYQFMDHRRTVREFSNRAIPLEVIENIVMTASTAPSGAHKQPWTFVVVSDPQIKAKIRQAAEKEEFESYNGRMSNEWLEDLQPFGTDWHKPFLEIAPYLIVVFRKAYDVLPDGTQRKNYYVQESVGIACGFLLAAIHQAGLVALTHTPSPMNFLQKILQRPENERPFLLVPVGYPAEGAMVPDLQRKDKAAVMVVY
As usually defined, the Km is the substrate concentration at which the rate is half of its maximum. Usually kcat stands for the maximal rate divided by the concentration of active sites. Usually kcat/Km stands for the turnover number divided by the Michaelis constant. With B1, in “purified protein [1]”, the Michaelis constant (Km) was found to be 6.6 ± 0.9 µM, the turnover number (kcat) was 0.09 ± 0.005 s⁻¹ and the kcat/Km came to 13300 ± 1670 M⁻¹ s⁻¹.

B2: nvIYD (Nematostella vectensis) (protein)
chain: MEVFKALFKSKEAYTVDVDPMKDSDEHDLPRDPLSIRVTGEEEVNHIPYPYFDEIPTEEEMKKKSAEFYKSMKKRRTVRKISSEPVPLEVIENIVRVAGTSPSGAHTEPWTYVVIRDPDLKKQIKEVVEEEEQLNYARRMGEKWVQDLSILKTTWSKPYIETAPYLILIFKQVYGIKPDGDKKVHYYNEISVCISCGLLLAAIQNAGLVTVTSTPMNAGPRLRVLLNRPQNEKLIMLLPVGYPAKDAEVPNLTRKPLEEIMVLK
On to B2, for which, in “purified protein [2]”, the Michaelis constant (Km) is 105 ± 26 µM, the catalytic constant (kcat) stood at 0.533 ± 0.0667 s⁻¹ and the kcat/Km was found to be 5000 ± 1330 M⁻¹ s⁻¹.

B3: dpIYD (Daphnia pulex) (protein)
chain: VKRESAIEQINEIEDDDEQSLEDQDVLPILFQYEKPSEADSIRRSEEFYRRMNQRRSVREISSDPVALEVIENIIKTGGTSPSGAHTEPWTFVVVSNLEMKQQIRQIIEAEEEINYKQRMGDVWVQDLQPVGTTWVKEYLTEAPWLILIFKQVHGFKRNGQKKIHYYNEISVSIATGFLLAAIQEAGLVTVTTTPLNCGPSIRVLLGRPVNEKLLLLLPVGYPKVGATVPDFKRKPLHDIMVHYQ
As to B3, in the data set “purified protein [3]”, the Michaelis constant (Km) is recorded as 7 ± 1 µM, the kcat worked out at 0.293 ± 0.0133 s⁻¹ and the kcat/Km was determined as 41700 ± 6670 M⁻¹ s⁻¹.

B4: drIYD (Danio rerio) (protein)
chain: T1 sequence (E7FDV5 24-295 limits assumed)
Take B4: in “purified protein [4]”, the Michaelis constant (Km) turned out to be 8 ± 1 µM, the catalytic constant (kcat) was 0.0683 ± 0.00333 s⁻¹ and the kcat/Km came to 8500 ± 1170 M⁻¹ s⁻¹.
